# Source: patent US10294303B2, “Method of treating or ameliorating metabolic disorders using binding proteins for gastric inhibitory peptide receptor (GIPR) in combination with GLP-1 agonists” (AMGEN INC., priority 2015, dated 2019)
# B1: 2.63.1: anti-murine GIPR antibody; light chain SEQ ID NO: 3161, heavy chain SEQ ID NO: 3162 (antibody)
# heavy: MGWSYIILFLVATATDVHSQVQLQQPGAELVKPGASVKLSCRASGYTFTSNWMHWVKQRPRQGLEWIGEINPSNGRSNYNEKFKTKATLTVDKSSSTAYMQLSSLTSEDSAVYYCARFYYGTSWFAYWGQGTLVAVSAAKTTPPSVYPLAPGSAAQTNSMVTLGCLVKGYFPEPVTVTWNSGSLSSGVHTFPAVLQSDLYTLSSSVTVPSSTWPSETVTCNVAHPASSTKVDKKIVPRDCGCKPCICTVPEVSSVFIFPPKPKDVLTITLTPKVTCVVVDISKDDPEVQFSWFVDDVEVHTAQTQPREEQFASTFRSVSELPIMHQDWLNGKEFKCRVNSAAFPAPIEKTISKTKGRPKAPQVYTIPPPKEQMAKDKVSLTCMITDFFPEDITVEWQWNGQPAENYKNTQPIMDTDGSYFVYSKLNVQKSNWEAGNTFTCSVLHEGLHNHHTEKSLSHSPGK
# light: MKLPVRLLVLMFWIPASSSDVVMTQTPLSLPVSLGDQASISCRSSQSLVHSNGDTYLHWYLQKPGQSPKLLIYKVSNRFSGVPDRFSGSGSGTDFTLKISRVEAADLGVYFCSQSTHVPPFTFGGGTKLEIKRADAAPTVSIFPPSSEQLTSGGASVVCFLNNFYPKDINVKWKIDGSERQNGVLNSWTDQDSKDSTYSMSSTLTLTKDEYERHNSYTCEATHKTSTSPIVKSFNRNEC
# Assays:
# [1] = tested on: C57BL/6 DIO mice; assay: Chronic treatment of DIO mice with anti-GIPR 2.63.1 in combination with Liraglutide, Dulaglutide or Exendin IV; format: in vivo, mouse; conditions: 2.63.1 25 mg/kg once a week, Dulaglutide 1 mg/kg twice a week, Liraglutide 0.3 mg/kg once a day, Exendin IV 0.01 mg/kg once a day, i.p.
# Experimental: Male C57BL/6 DIO mice were purchased from Jackson laboratory. Mice were singly housed and continued on high fat diet (60 kcal % fat, Research diet) after arrival. […] All treatments were administrated intraperitoneally. Blood samples were collected from tail vein or cardiac puncture at termination. Serum insulin levels were determined by using mouse high range insulin ELISA (ALPCO Diagnostics). The triglyceride levels were measured using an infinity triglyceride assay kit (Thermo Scientific). Total cholesterol was measured using an infinity total cholesterol kit (Thermo Scientific). Body composition was determined using the minispec whole body composition analyzer (Bruker). For oral glucose tolerance test, mice were fasted for 4 h. Glucose levels were measured and blood samples were taken from the tail vein before the OGTT was initiated. A bolus of glucose (2 g/kg) was given orally by a gavage needle. Glucose levels were measured at 15, 30 and 60 min after glucose administration using a glucose meter (Abbott).
# [2] = rapid degradation by the DPP-IV enzyme; cited from earlier work
# [3] = tested on: C57BL/6 DIO mice; assay: Chronic treatment of DIO mice with anti-GIPR 2.63.1 in combination with Liraglutide; format: in vivo, mouse; conditions: 2.63.1 30 mg/kg twice a week, Liraglutide 0.3 mg/kg once a day, i.p.
# Experimental: FIG. 24 provides an overview of the study used to determine the effects of chronic treatment of diet induced obese (DIO) mice with the mouse anti-mouse GIPR Ab (2.63.1) in combination with the GLP-1R agonist Liraglutide. Male C57BL/6 DIO mice were purchased from Jackson laboratory. Mice were single housed and continued on high fat diet (60 kcal % fat, Research Diets). Mice at 35 weeks old were randomized into groups and received one of the following treatments: A: vehicle (10 mM acetate, 9% sucrose, pH 5.2, and saline); B: 2.63.1 (30 mg/kg, twice a week); C: Liraglutide (0.3 mg/kg, once a day) and D: 2.63.1 (30 mg/kg, twice a week) and Liraglutide (0.3 mg/kg, once a day). All treatments were administrated intraperitoneally.
# Blood samples were collected from tail vein or cardiac puncture at termination. Serum insulin levels were determined by using mouse high range insulin ELISA (ALPCO Diagnostics). Serum leptin levels were measured using mouse and rat leptin ELISA kit from BioVendor. The triglyceride levels were measured using an infinity triglyceride assay kit (Thermo Scientific). Total cholesterol was measured using an infinity total cholesterol kit (Thermo Scientific). At termination, liver, epididymal fat and inguinal fat were isolated and weighed using a balance.
# Body composition was determined using the minispec whole body composition analyzer (Bruker).
# For the oral glucose tolerance test (OGTT), mice were fasted for 4 hours. Glucose levels were measured and blood samples were taken from the tail vein before the OGTT was initiated. A bolus of glucose (2 g/kg) was given orally by a gavage needle. Glucose levels were measured at 15, 30 and 60 min after glucose administration using a glucose meter (Abbott).
# [4] = tested on: C57BL/6 DIO mice; assay: Chronic treatment of diet induced obese mice with GIPR antibody 2.63.1; format: in vivo, mouse; conditions: twice a week i.p. for 6 weeks
# Experimental: FIG. 3 provides an overview of the study used to determine the effects of chronic treatment of diet induced obese (DIO) mice with the 2.63.1 antibody. 18 week old male C57BL/6 DIO mice fed Research Diets D12492 (60 kcal % fat) were randomized into groups. Treatments were given twice a week intraperitoneally for 6 weeks. Blood glucose levels were measured from tail nick using a glucose meter (Abbott) after mice were fasted for 4 hours. Insulin levels were determined using mouse high range insulin ELISA (ALPCO Diagnostics). Triglyceride levels were measured using an Infinity triglyceride assay kit (Thermo Scientific). Total cholesterol was measured using an Infinity total cholesterol kit (Thermo Scientific). Body composition was determined using the minispec whole body composition analyzer (Bruker).
# For intraperitoneal glucose tolerance test (IPGTT), mice were fasted for 4 hours. Glucose levels were measured and blood samples were taken from the tail vein before IPGTT was initiated. IPGTT was performed by intraperitoneal injection of glucose (1 g/kg body weight). Glucose levels were measured at 20, 40 and 60 minutes after glucose administration by using a glucose meter (Abbott). FIG. 4.
# At termination, liver and epididymal fat was isolated and weighed using a balance. One piece of each tissue was fixed in 10% buffered formalin for 24 hours.
# [5] = tested on: C57BL/6 DIO male mice; assay: Anti-GIPR 2.63.1 treatment in DIO mice pre-treated with Liraglutide (two-phase study); format: in vivo, mouse; conditions: Liraglutide 0.05 or 0.3 mg/kg daily for 2 weeks, then 2.63.1 25 mg/kg weekly added
# Excerpt: FIG. 41 provides an overview of the study used to determine the effects of chronic treatment of diet induced obese (DIO) mice pre-treated with Liragutide with the mouse anti-mouse GIPR Ab (2.63.1). C57BL/6 DIO male mice (17 week old) fed Research Diets D12492 (60% kcal fat) for 13 weeks were randomized into groups. During phase 1 (pre-treatment phase), animals were intraperitoneally dosed daily for 2 weeks with either 1) saline (0.9% sodium chloride), 2) Liraglutide (BAChem #H-6724-0005) at 0.05 mg/kg, 3) Liraglutide at 0.3 mg/kg, or 4) Liraglutide 0.3 mg/kg in combination with a weekly dose of mouse anti-mouse GIPR Ab (2.63.1) in vehicle (10 mM acetate, 9% sucrose, pH 5.2) at 25 mg/kg;ll other groups (1-3) received a weekly dose of vehicle. During phase 2 (experimental stage) mouse anti-mouse GIPR Ab (2.63.1) treatment was initiated in the animals pre-treated with Liraglutide. Blood glucose levels were measured from retro orbital sinus using a glucose meter (Abbott) after mice were fasted for 4 hours before phase 1, end of phase 1, and at the end of the experiment. Insulin levels were determined using mouse high range insulin ELISA (ALPCO Diagnostics). […] Plasma was analyzed on the Olympus chemistry analyzer for liver enzymes, cholesterol, triglycerides, and NEFA. Plasma was analyzed in mouse metabolism multiplex assay (MMHMAG-44K—EMD Millipore) for mouse hormones.
# [6] = tested on: high fat diet (HFD)-induced obese C57BL/6 mice; assay: Mouse pharmacodynamic assay (IPGTT following exogenous [D-Ala2]-GIP) to test anti-murine GIPR antibody 2.63.1; format: in vivo; conditions: antibody i.p. the day before IPGTT, [D-Ala2]-GIP 50 nmol/kg i.p.
# Experimental: FIG. 1 provides an overview of the pharmacodynamics assay to test anti-murine GIPR antibodies. Seven week old male high fat diet (HFD)-induced obese C57BL/6 mice were purchased from Jackson Labs. After arrival, mice were continued on high fat diet with Research Diets D12492 (60 kcal % fat) (Research diet) for one to two weeks. Mice were randomized by body weight and were administrated intraperitoneally with testing GIPR antibody or vehicle (10 mM acetate, 150 mM NaCl, pH 5.0) the day before intraperitoneal glucose tolerance test (IPGTT). Mice were fasted for 7 hours and IPGTT was performed immediately following exogenous GIP [D-Ala2]-GIP (50 nmol/kg, Phoenix Pharmaceuticals) given intraperitoneally. Blood samples were taken from tail nick at the times indicated. Glucose was measured using AlphaTrak blood glucose meter (Abbott). Blood insulin level was determined by using Insulin (mouse) ultra-sensitive EIA kit (ALPCO Diagnostics). […] 2.63.1 comprises a light chain with the following sequence: […]
molecule,measurement,setting,value
"Dulaglutide: GLP1R agonist; also known LY2189265, Eli Lilly and Company [reference compound]","effect on fat mass loss of the combination GIPR Ab 2.63.1 with GLP-1R agonist (Liraglutide, Dulaglutide or Exendin IV)",[1],synergistic effect
same,"effect on weight loss of the combination GIPR Ab 2.63.1 with GLP-1R agonist (Liraglutide, Dulaglutide or Exendin IV)",[1],synergistic effect
GLP-1: 31-amino acid peptide derived from the proglucagon gene,half-life,[2],approximately 2 minutes
B1,body weight,[3],prevented weight gain
same,glucose levels,[3],lowered glucose
same,insulin levels,[3],lowered
same,fasting glucose levels,"[4]; 4 hours fast, FIG. 7",lower fasting glucose levels
same,body weight gain,[4]; FIG. 4,Reduced Body Weight Gain
same,fat mass,[4]; FIG. 5,lower fat mass
same,epididymal white adipose tissue weights,[4]; FIG. 6,lower epididymal white adipose tissue weights
same,insulin levels,[4]; FIG. 8,lower insulin levels
same,serum total cholesterol,[4]; FIG. 10A,lower serum total cholesterol
same,serum triglycerides,[4]; FIG. 10B,Lower
same,hepatocyte microvesicular change and corresponding lipid accumulation,[4]; FIG. 11,reduction in hepatocyte microvesicular change and corresponding lipid accumulation
same,liver weight,[4]; FIG. 12A,reduced liver weight
same,liver triglyceride content,[4]; FIG. 12B,reduced
same,inflammation and infiltrating macrophages surrounding adipocytes in epididymal white adipose tissue,[4]; FIG. 13,reduced inflammation and reduced infiltrating macrophages cells surrounding adipocytes
same,glucose tolerance (IPGTT),"[4]; glucose 1 g/kg i.p., FIG. 9",improved glucose tolerance
same,weight loss in animals pre-treated with Liraglutide,[5],weight loss effect of anti-GIPR can be observed in animals already receiving GLP-1R agonist therapy
same,"effect on fat mass loss of the combination GIPR Ab 2.63.1 with GLP-1R agonist (Liraglutide, Dulaglutide or Exendin IV)",[1],synergistic effect
same,"effect on weight loss of the combination GIPR Ab 2.63.1 with GLP-1R agonist (Liraglutide, Dulaglutide or Exendin IV)",[1],synergistic effect
same,GIP induced glucose levels,[6]; FIG. 2A,Antagonized
same,GIP induced insulin secretion,[6]; FIG. 2B,antagonizes GIP induced insulin secretion
